# Data from patent publication US20160279221A1 (UNITED STATES OF AMERICA AS REPRESENTED BY THE SECRETARY OF …, published 2016).
# Residue numbers refer to the chain shown, from its start.
# T1: P. falciparum 3D7 AMA1 recombinant allelic protein (Plasmodium falciparum, UniProt P22621 83-531)
# T1 chain: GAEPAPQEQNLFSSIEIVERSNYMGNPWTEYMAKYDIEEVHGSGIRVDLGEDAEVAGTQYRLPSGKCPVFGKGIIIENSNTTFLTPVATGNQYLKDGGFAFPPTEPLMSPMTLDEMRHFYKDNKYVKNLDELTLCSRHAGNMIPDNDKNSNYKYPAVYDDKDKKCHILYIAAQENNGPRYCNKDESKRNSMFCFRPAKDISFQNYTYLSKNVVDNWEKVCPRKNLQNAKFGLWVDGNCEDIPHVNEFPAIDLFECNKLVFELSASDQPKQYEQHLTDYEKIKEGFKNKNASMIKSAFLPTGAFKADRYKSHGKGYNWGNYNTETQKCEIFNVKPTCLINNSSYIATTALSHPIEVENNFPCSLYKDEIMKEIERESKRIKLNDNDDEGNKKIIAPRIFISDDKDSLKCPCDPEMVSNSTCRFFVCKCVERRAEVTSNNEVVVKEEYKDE
# T2: P. falciparum FVO AMA1 recombinant allelic protein (Plasmodium falciparum, UniProt P50490 83-531)
# T2 sequence: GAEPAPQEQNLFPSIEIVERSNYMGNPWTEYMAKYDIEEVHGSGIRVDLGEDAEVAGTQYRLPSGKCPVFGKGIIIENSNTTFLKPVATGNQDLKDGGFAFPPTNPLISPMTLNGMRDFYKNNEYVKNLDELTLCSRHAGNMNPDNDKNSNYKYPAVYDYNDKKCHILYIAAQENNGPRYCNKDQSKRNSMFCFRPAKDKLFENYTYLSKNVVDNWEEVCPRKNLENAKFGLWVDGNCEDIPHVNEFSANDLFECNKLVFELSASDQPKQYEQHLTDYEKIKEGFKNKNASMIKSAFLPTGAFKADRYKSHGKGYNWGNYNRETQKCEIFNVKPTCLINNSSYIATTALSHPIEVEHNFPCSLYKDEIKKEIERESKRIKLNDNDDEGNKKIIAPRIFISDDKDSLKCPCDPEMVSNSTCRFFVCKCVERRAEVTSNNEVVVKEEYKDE
# T3: P. falciparum HB3 AMA1 recombinant allelic protein (Plasmodium falciparum, UniProt P50491 83-531)
# T3 sequence: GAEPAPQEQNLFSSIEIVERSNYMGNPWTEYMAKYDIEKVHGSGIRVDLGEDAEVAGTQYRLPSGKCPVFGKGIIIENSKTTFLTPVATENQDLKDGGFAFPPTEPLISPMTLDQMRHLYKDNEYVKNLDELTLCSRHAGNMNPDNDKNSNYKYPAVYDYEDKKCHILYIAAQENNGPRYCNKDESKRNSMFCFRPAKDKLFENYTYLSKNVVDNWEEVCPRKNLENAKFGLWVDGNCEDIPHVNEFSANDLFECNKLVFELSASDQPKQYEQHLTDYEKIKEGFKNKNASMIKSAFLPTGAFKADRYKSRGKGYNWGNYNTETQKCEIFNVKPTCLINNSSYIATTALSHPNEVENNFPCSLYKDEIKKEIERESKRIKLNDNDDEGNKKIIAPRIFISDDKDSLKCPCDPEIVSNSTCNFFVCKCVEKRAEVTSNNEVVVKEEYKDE
# T4: P. falciparum W2mef AMA1 recombinant allelic protein (Plasmodium falciparum, UniProt P50492 83-531)
# T4 chain: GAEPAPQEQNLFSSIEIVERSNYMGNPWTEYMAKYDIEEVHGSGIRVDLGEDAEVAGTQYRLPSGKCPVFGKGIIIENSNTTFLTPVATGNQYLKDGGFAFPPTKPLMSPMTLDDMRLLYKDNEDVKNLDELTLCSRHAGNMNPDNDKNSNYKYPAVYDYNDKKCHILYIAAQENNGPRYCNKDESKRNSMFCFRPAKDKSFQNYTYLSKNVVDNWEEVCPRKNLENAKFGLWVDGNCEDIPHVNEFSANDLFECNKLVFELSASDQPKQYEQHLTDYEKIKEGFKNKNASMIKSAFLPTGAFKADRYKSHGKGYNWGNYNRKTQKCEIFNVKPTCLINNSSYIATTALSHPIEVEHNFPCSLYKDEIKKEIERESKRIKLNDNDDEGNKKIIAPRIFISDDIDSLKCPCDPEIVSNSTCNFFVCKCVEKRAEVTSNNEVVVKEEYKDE
# T5: P. falciparum 7G8 AMA1 recombinant allelic protein (Plasmodium falciparum, UniProt P50492 83-531)
# T5 sequence: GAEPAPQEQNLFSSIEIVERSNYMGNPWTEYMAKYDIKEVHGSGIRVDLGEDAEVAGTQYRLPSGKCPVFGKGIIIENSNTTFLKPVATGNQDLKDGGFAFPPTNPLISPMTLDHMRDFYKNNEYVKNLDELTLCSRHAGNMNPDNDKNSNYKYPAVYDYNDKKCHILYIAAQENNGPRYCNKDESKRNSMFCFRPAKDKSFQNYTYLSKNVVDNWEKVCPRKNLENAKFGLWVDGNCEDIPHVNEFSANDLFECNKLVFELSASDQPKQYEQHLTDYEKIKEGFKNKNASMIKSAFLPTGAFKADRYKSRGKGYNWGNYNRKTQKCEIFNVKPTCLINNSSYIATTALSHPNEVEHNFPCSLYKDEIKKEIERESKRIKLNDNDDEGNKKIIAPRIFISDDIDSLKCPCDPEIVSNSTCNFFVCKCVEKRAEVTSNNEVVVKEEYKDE
# B1: monoclonal antibody 1E10 (antibody, V domains shown)
# VH: EVQLQESGAELAKPGASVKLSCKASGYTFTNYLMHWIKQRPGQGLEWIGYINHGSGYTNYNQKFIDRATLTADKSSSTAYMQLRSLTYEDSAVYYCVHGYFDVWGTGTTVTVSS
# VL: QIVLTQSPTIMSASPGEKVTMTCSASSSVTYMHWYQQKPGTSPKRWIYDTSKLASGVPARFSGSGSGTSYSLTISSMEAEDAATYYCHQRSSYPTFGGGTKLEIKR
# notes: Mouse monoclonal raised against QV, purified from ascites on Protein G; also called mAb 1E10; Monoclonal 1E10
# B2: monoclonal antibody 1B10 (antibody, V domains shown)
# VH: EVQLQESGPGLVQPSQSLSITCTVSGFSLNMYGVHWVRQSPGKGLEWLGVIWSGGTTDYNAAFISRLSINRDNSKSQVFFKMNSLQTDDTAIYYCVRNNGYYVDAMDYWGQGTSVAVSS
# VL: DVVMTQTPLSLPVSLGDQASISCRSSQSLVHSNGNTYLHWYLQRPGQSPKLLIYKVSNRFSGVPDRFSGSGSGTDFTLKISRVEAEDLGVYFCSQSTLGPTFGGGTKLEMQR
# B3: monoclonal antibody 4E11 (antibody, V domains shown)
# VH: EVQLQESGPGLVRPSQSLSITCTVSGFSLPLYGVHWVRQSPGKGLEWLGVIWSGGSTDYNAAFVSRLSISKDNSKSQVFFEMNSLQADDTATYYCARNNGYYVDAMDYWGQGTSVTVSS
# VL: B2 VL with R44K, Y54F, K79Q, V90F, L98H, G99V, M110I, Q111K
# B4: monoclonal antibody 4E8 (antibody, V domains shown)
# VH: B3 VH with R13Q, G26D, P30I, L31M, V64I, E81K, T92I
# VL: B2 VL with S32N, R44K, S61F, L98H, G99V, M110I, Q111K
# Tests used:
# [1] = target: T6, AMA1 on P. falciparum 3D7 strain parasites (Plasmodium falciparum); test: cell-based or functional assay
# [2] = target: T6, AMA1 on P. falciparum 3D7 strain …; test: cell-based or functional assay; remark: listed apart in the source
# [3] = target: T1, P. falciparum 3D7 AMA1 recombinant …; test: dot blot against 7 AMA1 allelic proteins
# [4] = target: T2, P. falciparum FVO AMA1 recombinant …; test: dot blot against 7 AMA1 allelic proteins
# [5] = target: T3, P. falciparum HB3 AMA1 recombinant …; test: dot blot against 7 AMA1 allelic proteins
# [6] = target: T4, P. falciparum W2mef AMA1 recombinant …; test: dot blot against 7 AMA1 allelic proteins
# [7] = target: T5, P. falciparum 7G8 AMA1 recombinant …; test: dot blot against 7 AMA1 allelic proteins
Binder,"IC30 concentration (30% inhibition against the 3D7 target parasites, GIA) [1] [µg/mL]",Inhibition (GIA at 1 mg/ml against the 3D7 target strain) [2] [%],binding result [3],binding result [4],binding result [5],binding result [6],binding result [7]
B1,1900,20,binds,binds,binds,binds,binds
B2,150,65,,,,,
B3,220,62,,,,,
B4,150,67,,,,,
